The target in data set [1] is T1, BRD4 N-terminal tandem bromodomain fragment (BD1-BD2) (Homo sapiens, UniProt O60885 49-460). In words: SPR; SPR: 10 mM HEPES pH 7.4, 150 mM NaCl, 50 uM EDTA, 0.005% P20, 24 C; MST: PBS, 0.05% Tween-20, 22 C; NMR: 20 mM Na-phosphate pH 7.5, 80 mM KCl, 5% D2O, 25 C; nucleosome: 20 mM Tris-HCl pH 8.0, NaCl 2 M to 250 mM. As to conditions: protein: recombinant; tags: N-terminal His8 (RED-tris-NTA label for MST; Ni-NTA capture for SPR); parallel 3-quartet G4; unimolecular fraction about 50% in the NMR sample. For orientation: SPR reads the build-up and loss of mass on a sensor chip optically.

The target of data set [2] is T1, BRD4 N-terminal tandem bromodomain …. In words: NMR; 80 mM KCl; 1:2 BRD4:G4 model; SPR: 10 mM HEPES pH 7.4, 150 mM NaCl, 50 uM EDTA, 0.005% P20, 24 C; MST: PBS, 0.05% Tween-20, 22 C; NMR: 20 mM Na-phosphate pH 7.5, 80 mM KCl, 5% D2O, 25 C; nucleosome: 20 mM Tris-HCl pH 8.0, NaCl 2 M to 250 mM. As to conditions: protein: recombinant; tags: N-terminal His8 (RED-tris-NTA label for MST; Ni-NTA capture for SPR); parallel 3-quartet G4; unimolecular fraction about 50% in the NMR sample.

For data set [3] the target is unchanged. Put plainly: SPR; no ligand; SPR: 10 mM HEPES pH 7.4, 150 mM NaCl, 50 uM EDTA, 0.005% P20, 24 C; MST: PBS, 0.05% Tween-20, 22 C; NMR: 20 mM Na-phosphate pH 7.5, 80 mM KCl, 5% D2O, 25 C; nucleosome: 20 mM Tris-HCl pH 8.0, NaCl 2 M to 250 mM. As to conditions: protein: recombinant; tags: N-terminal His8 (RED-tris-NTA label for MST; Ni-NTA capture for SPR); duplex flanks around G4 with opposing C-rich strand; about 50% G4 folded without PDS.

The target is the same in data set [4]. Put plainly: SPR; 1-200 uM ODN; SPR: 10 mM HEPES pH 7.4, 150 mM NaCl, 50 uM EDTA, 0.005% P20, 24 C; MST: PBS, 0.05% Tween-20, 22 C; NMR: 20 mM Na-phosphate pH 7.5, 80 mM KCl, 5% D2O, 25 C; nucleosome: 20 mM Tris-HCl pH 8.0, NaCl 2 M to 250 mM. The settings on record: protein: recombinant, tags: N-terminal His8 (RED-tris-NTA label for MST; Ni-NTA capture for SPR).

The Kd is the equilibrium constant for the complex coming apart.

Turning to GGGAGGGAGGGAGGG (structured_DNA) [G4 (SE G4)], the equilibrium dissociation constant (Kd) in data set [1] was 5 ± 3 µM; in data set [2], 6 ± 1 µM.

B1: dsG4 (mixed)
DNA 1: ATCACACTTGGCAGGGAGGGAGGGAGGGATGCAGCTGATCA
DNA 2: TGATCAGCTGCATCCCTCCCTCCCTCCCTGCCAAGTGTGAT
As to B1, the Kd in data set [3] amounted to 5 ± 3 µM.

B2: dsCntr (dsDNA)
DNA 1: ATCACACTTGGCTTTCAACCAGTCTATGCTGCAGCTGATCA
DNA 2: TGATCAGCTGCAGCATAGACTGGTTGAAAGCCAAGTGTGAT
With B2, the binding result in data set [4] (blunt) is “no binding”. As for CAATCGGATCGAATTCGATCCGATTG (structured_DNA) [ds26], in data set [4] (hairpin), the binding result is “no binding”. Consider CCCCCTCCCCCTCCCCCTCCCCC (structured_DNA) [iM], for which the binding result in data set [4] (i-motif) was “no binding”.

The values above are taken from PMC12311796.
